Ends that are not written are not given here.

Common to all, as to details: both partners purified
Test [1] addresses T1, Human PPARδ-LBD (amino acids 170–441) (human, UniProt Q03181 170-441).
T1 sequence (looked up): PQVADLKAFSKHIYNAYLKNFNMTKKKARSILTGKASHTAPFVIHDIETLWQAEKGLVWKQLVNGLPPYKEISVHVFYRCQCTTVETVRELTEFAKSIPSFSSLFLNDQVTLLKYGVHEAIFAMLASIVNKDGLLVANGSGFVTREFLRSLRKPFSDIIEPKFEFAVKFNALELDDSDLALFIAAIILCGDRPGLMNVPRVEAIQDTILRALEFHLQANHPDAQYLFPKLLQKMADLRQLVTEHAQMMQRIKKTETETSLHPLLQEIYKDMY
As to the kind of experiment: FRET or BRET; same cell-free TR-FRET coactivator recruitment; with approved drug (pemafibrate for PPARα, seladelpar for PPARδ, pioglitazone for PPARγ), concentration series; response as percent of the maximal response with 1 µM GW full agonist.

The target in test [2] is T2, Human PPARα-LBD (amino acids 200–468) (human, UniProt Q07869 200-468).
T2 construct: source: delipidized with ethanol
T2 sequence (looked up): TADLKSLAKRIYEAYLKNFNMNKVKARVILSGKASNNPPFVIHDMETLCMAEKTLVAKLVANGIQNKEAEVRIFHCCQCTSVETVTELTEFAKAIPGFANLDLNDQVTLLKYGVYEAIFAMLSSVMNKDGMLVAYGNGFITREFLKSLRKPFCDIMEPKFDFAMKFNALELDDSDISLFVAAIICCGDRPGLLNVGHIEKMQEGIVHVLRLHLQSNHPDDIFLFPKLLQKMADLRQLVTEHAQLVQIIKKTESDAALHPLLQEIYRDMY
The test is described as above.

For test [3], the target named is T3, Human PPARγ-LBD (isoform 1; amino acids 203–477) (human, UniProt P37231-2 203-477).
T3 construct: numbers count on: isoform 1
T3 sequence (looked up): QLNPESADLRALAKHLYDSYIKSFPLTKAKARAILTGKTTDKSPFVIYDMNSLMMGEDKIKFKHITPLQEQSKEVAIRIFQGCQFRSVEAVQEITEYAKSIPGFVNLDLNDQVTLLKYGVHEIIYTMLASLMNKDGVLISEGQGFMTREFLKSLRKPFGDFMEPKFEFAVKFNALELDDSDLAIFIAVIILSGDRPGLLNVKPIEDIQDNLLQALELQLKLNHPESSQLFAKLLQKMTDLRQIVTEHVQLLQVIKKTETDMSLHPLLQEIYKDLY
The test is described as above.

In test [4] the target is T3, Human PPARγ-LBD (isoform 1; amino acids …). As to the kind of experiment: FRET or BRET; cell-free TR-FRET coactivator recruitment; 6×His-LBD (9.5 µL of 400 nM) with Eu-W1024 anti-6×His antibody, biotin-labeled peptide (5 µL of 1 µM) with ULight-streptavidin; Buffer A (20 mM HEPES-NaOH pH 7.4, 150 mM NaCl, 1 mM EDTA, 0.005% Tween 20, 0.2% FA-free BSA); room temperature, 2 h; with synthetic full agonist (GW7647 for PPARα, GW501516 for PPARδ, GW1929 for PPARγ), concentration series; 665/620 ….

EAEEPSLLKKLLLAPANTQ (also: biotin-labeled, position not given here, source: synthetic peptide (GenScript)) [PGC1α coactivator peptide, AAs 137–155]: the binding result in test [1] is recorded as “binds”.
SGNLVPDAASKHKQLSELLRGGSGS (also: biotin-labeled, position not given here, source: synthetic peptide (GenScript)) [CBP coactivator peptide, AAs 56–80]: the binding result in test [2], in test [1] and in test [3] was “binds” throughout.
CPSSHSSLTERHKILHRLLQEGSPS (also: biotin-labeled, position not given here, source: synthetic peptide (GenScript)) [SRC1 coactivator peptide, AAs 676–700]: the binding result in test [2] and in test [1] was “binds” each time.

B1: TRAP220 coactivator peptide, AAs 631–655 (peptide)
peptide: PVSSMAGNTKNHPMLMNLLKDNPAQ
modifications: also: biotin-labeled, position not given here
notes: Thyroid hormone receptor-associated protein 220, amino acids 631-655, holds an LXXLL motif (LMNLL); also called thyroid hormone receptor-associated protein 220 peptide; source: synthetic peptide (GenScript)
Take B1: the binding result in test [2], in test [1] and in test [4] was “binds” each time.

Values taken from PMC12732646, “Peroxisome Proliferator-Activated Receptor α/δ/γ Activation Profile by Endogenous Long-Chain Fatty Acids” (International Journal of Molecular Sciences, 2025).
